From patent US20220010021A1 (Sanofi, published 2022)
Where a chain is given by its changes, count along the chain named.

T1: human beta-Klotho (KLB) (human, UniProt Q86Z14 53-997)
T1 construct: also called human KLB
T1 sequence (looked up): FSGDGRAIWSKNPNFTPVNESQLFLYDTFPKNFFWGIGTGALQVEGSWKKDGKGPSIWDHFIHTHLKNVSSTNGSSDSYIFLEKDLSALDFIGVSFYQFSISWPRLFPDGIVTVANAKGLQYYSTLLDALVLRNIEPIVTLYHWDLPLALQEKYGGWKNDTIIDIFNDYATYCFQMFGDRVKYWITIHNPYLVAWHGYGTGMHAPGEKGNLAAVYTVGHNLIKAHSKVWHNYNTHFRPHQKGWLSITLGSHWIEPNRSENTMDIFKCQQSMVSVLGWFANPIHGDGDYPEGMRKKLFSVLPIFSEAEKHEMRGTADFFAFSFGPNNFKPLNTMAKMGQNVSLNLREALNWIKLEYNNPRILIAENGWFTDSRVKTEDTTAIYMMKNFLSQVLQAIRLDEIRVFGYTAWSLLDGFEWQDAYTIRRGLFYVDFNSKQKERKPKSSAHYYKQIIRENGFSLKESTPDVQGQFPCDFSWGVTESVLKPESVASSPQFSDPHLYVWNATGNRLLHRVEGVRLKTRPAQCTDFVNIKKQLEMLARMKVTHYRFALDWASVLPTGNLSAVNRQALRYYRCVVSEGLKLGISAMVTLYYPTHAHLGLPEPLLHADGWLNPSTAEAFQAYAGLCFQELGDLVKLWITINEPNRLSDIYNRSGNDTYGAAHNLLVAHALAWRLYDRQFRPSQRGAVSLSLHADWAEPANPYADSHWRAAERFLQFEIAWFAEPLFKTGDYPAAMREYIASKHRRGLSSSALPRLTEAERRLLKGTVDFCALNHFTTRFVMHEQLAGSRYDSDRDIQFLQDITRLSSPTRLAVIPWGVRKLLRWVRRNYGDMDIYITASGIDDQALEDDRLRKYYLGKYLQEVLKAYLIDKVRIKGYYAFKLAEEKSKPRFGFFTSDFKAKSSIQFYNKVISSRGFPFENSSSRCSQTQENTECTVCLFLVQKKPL

B1: 16H7 variant, light chain P54T (antibody, human IgG4 S228P, lambda, V domains shown)
VH: not shown
VL: SYVLTQPPSVSVAPGQTARITCGGNNIGSESVHWYQQKPGQAPVLVVYDDSDRTSGIPERFSGSNSGNTATLTISRVEAGDEADYYCQVWDGNSDHVVFGGGTKLTVLG
notes: IgG4 backbone
B2: 16H7 variant, light chain R53I (antibody, human IgG4 S228P, lambda, V domains shown)
VH: not shown
VL: B1 VL with R53I, T54P
notes: IgG4 backbone
B3: 16H7 variant, light chain P54Y (antibody, human IgG4 S228P, lambda, V domains shown)
VH: not shown
VL: B1 VL with T54Y
notes: IgG4 backbone
B4: 16H7 variant, light chain S55I (antibody, human IgG4 S228P, lambda, V domains shown)
VH: not shown
VL: B1 VL with T54P, S55I
notes: IgG4 backbone
B5: 16H7 variant, light chain R53K (antibody, human IgG4 S228P, lambda, V domains shown)
VH: not shown
VL: B1 VL with R53K, T54P
notes: IgG4 backbone
B6: 16H7 variant, light chain Q88M (antibody, IgG4, V domains shown)
VH: not shown
VL: B1 VL with T54P, Q88M
notes: IgG4 backbone; copies: 2 + 2
B7: 16H7 variant, light chain S55L (antibody, IgG4, V domains shown)
VH: not shown
VL: B1 VL with T54P, S55L
notes: IgG4 backbone; copies: 2 + 2
B8: 16H7 variant, light chain R53H (antibody, human IgG4 S228P, lambda, V domains shown)
VH: not shown
VL: B1 VL with R53H, T54P
notes: IgG4 backbone
B9: 16H7 variant, light chain Q88A (antibody, human IgG4 S228P, lambda, V domains shown)
VH: not shown
VL: B1 VL with T54P, Q88A
notes: IgG4 backbone
B10: 16H7 variant, light chain S55D (antibody, human IgG4 S228P, lambda, V domains shown)
VH: not shown
VL: B1 VL with T54P, S55D
notes: IgG4 backbone
B11: 16H7 variant, light chain R53P (antibody, human IgG4 S228P, lambda, V domains shown)
VH: not shown
VL: B1 VL with R53P, T54P
notes: IgG4 backbone
B12: 16H7 variant, light chain R53L (antibody, human IgG4 S228P, lambda, V domains shown)
VH: not shown
VL: B1 VL with R53L, T54P
notes: IgG4 backbone
B13: 16H7 variant, light chain S55E (antibody, IgG4, V domains shown)
VH: not shown
VL: B1 VL with T54P, S55E
notes: IgG4 backbone; copies: 2 + 2
B14: 16H7 variant, light chain S55H (antibody, human IgG4 S228P, lambda, V domains shown)
VH: not shown
VL: B1 VL with T54P, S55H
notes: IgG4 backbone
B15: 16H7 variant, light chain P54V (antibody, human IgG4 S228P, lambda, V domains shown)
VH: not shown
VL: B1 VL with T54V
notes: IgG4 backbone
B16: 16H7 variant, light chain S55F (antibody, IgG4, V domains shown)
VH: not shown
VL: B1 VL with T54P, S55F
notes: IgG4 backbone; copies: 2 + 2
B17: 16H7 variant, light chain Q88L (antibody, IgG4, V domains shown)
VH: not shown
VL: B1 VL with T54P, Q88L
notes: IgG4 backbone; copies: 2 + 2
B18: 16H7 variant, light chain R53S (antibody, human IgG4 S228P, lambda, V domains shown)
VH: not shown
VL: B1 VL with R53S, T54P
notes: IgG4 backbone
B19: 16H7 variant, light chain P54W (antibody, human IgG4 S228P, lambda, V domains shown)
VH: not shown
VL: B1 VL with T54W
notes: IgG4 backbone
B20: 16H7 variant, light chain S55G (antibody, human IgG4 S228P, lambda, V domains shown)
VH: not shown
VL: B1 VL with T54P, S55G
notes: IgG4 backbone
B21: 16H7 variant, light chain S55T (antibody, human IgG4 S228P, lambda, V domains shown)
VH: not shown
VL: B1 VL with T54P, S55T
notes: IgG4 backbone
B22: 16H7 variant, light chain R53T (antibody, human IgG4 S228P, lambda, V domains shown)
VH: not shown
VL: B1 VL with R53T, T54P
notes: IgG4 backbone
B23: 16H7 variant, light chain S55P (antibody, human IgG4 S228P, lambda, V domains shown)
VH: not shown
VL: B1 VL with T54P, S55P
notes: IgG4 backbone
B24: 16H7 variant, light chain R53C (antibody, human IgG4 S228P, lambda, V domains shown)
VH: not shown
VL: B1 VL with R53C, T54P
notes: IgG4 backbone
B25: 16H7 variant, light chain R53Q (antibody, human IgG4 S228P, lambda, V domains shown)
VH: not shown
VL: B1 VL with R53Q, T54P
notes: IgG4 backbone
B26: 16H7 variant, light chain S55R (antibody, IgG4, V domains shown)
VH: not shown
VL: B1 VL with T54P, S55R
notes: IgG4 backbone; copies: 2 + 2
B27: 16H7 variant, light chain S55N (antibody, human IgG4 S228P, lambda, V domains shown)
VH: not shown
VL: B1 VL with T54P, S55N
notes: IgG4 backbone
B28: 16H7 variant, light chain S55V (antibody, human IgG4 S228P, lambda, V domains shown)
VH: not shown
VL: B1 VL with T54P, S55V
notes: IgG4 backbone
B29: 16H7 variant, light chain Q88G (antibody, human IgG4 S228P, lambda, V domains shown)
VH: not shown
VL: B1 VL with T54P, Q88G
notes: IgG4 backbone
B30: 16H7 variant, light chain R53A (antibody, human IgG4 S228P, lambda, V domains shown)
VH: not shown
VL: B1 VL with R53A, T54P
notes: IgG4 backbone
B31: 16H7 variant, light chain R53M (antibody, human IgG4 S228P, lambda, V domains shown)
VH: not shown
VL: B1 VL with R53M, T54P
notes: IgG4 backbone
B32: 16H7 variant, light chain S51G (antibody, human IgG4 S228P, lambda, V domains shown)
VH: not shown
VL: B1 VL with S51G, T54P
notes: IgG4 backbone
B33: 16H7 variant, light chain S55C (antibody, human IgG4 S228P, lambda, V domains shown)
VH: not shown
VL: B1 VL with T54P, S55C
notes: IgG4 backbone

Key:
human beta-Klotho (KLB) = target: T1, human beta-Klotho (KLB); test: BLI off-rate screen (Octet), Ab captured via Fc;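 note: antibody supernatants applied at 25 µg/mL, dissociation monitored over 1800 s in D-PBS with 0.1% BSA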
[1] = target: human FGFR1c/KLB cell surface receptor complex on iLite FGF21 reporter cells (human, UniProt P11362 22-822; Q86Z14 1-1044); test: cell-based or functional assay; for Mean E max (%): reference of the scale not given here
Sequence of human FGFR1c/KLB cell surface receptor complex on iLite FGF21 reporter cells (P11362 22-822, chain 1 of 2): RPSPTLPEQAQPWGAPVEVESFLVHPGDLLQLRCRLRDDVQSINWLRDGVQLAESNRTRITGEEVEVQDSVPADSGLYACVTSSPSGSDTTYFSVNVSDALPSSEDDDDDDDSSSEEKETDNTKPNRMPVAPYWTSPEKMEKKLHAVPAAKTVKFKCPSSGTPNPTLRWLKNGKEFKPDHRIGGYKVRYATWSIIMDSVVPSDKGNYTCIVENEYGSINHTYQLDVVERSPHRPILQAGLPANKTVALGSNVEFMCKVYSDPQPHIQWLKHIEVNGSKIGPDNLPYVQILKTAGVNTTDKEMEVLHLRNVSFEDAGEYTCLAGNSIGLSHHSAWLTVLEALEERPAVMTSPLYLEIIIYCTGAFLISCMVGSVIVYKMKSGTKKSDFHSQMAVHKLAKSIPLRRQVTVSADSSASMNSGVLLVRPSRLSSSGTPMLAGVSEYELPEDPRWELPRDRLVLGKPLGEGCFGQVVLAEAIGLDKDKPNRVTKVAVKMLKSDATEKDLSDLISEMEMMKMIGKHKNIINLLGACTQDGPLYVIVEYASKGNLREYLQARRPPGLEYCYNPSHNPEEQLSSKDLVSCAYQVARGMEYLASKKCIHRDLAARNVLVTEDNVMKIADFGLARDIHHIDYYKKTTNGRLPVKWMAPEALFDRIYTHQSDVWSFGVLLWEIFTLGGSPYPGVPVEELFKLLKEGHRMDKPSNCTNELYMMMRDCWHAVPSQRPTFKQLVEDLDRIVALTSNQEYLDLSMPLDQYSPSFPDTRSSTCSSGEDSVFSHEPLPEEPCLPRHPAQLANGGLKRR
Sequence of human FGFR1c/KLB cell surface receptor complex on iLite FGF21 reporter cells (Q86Z14 whole entry, chain 2 of 2): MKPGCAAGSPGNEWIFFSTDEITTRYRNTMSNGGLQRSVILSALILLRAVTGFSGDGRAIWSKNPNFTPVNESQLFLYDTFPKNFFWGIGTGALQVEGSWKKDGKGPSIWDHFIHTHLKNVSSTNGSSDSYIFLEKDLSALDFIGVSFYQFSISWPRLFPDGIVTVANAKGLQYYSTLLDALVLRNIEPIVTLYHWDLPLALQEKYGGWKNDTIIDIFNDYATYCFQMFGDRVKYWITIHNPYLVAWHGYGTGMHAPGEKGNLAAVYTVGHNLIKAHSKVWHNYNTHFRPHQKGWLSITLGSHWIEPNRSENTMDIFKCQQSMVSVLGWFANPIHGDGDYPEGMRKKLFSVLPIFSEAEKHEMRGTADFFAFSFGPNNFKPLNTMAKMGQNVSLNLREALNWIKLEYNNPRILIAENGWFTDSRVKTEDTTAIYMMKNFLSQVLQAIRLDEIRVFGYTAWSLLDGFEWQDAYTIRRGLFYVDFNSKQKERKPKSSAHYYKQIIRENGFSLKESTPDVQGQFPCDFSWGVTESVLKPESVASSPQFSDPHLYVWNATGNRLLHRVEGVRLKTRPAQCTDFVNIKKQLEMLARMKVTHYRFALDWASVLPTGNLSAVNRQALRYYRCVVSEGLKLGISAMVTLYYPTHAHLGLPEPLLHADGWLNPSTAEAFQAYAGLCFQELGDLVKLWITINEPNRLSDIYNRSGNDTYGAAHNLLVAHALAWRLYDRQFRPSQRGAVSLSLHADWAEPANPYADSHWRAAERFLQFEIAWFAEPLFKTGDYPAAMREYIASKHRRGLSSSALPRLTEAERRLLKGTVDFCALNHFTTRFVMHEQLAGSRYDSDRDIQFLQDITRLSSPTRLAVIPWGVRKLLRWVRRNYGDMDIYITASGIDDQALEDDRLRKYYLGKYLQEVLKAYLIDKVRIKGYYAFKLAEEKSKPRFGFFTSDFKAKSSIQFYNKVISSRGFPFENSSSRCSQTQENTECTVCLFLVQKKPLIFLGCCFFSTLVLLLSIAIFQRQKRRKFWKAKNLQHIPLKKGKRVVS

| Binder | koff (human beta-Klotho (KLB)) [s⁻¹] | Mean E max (%) [1] [%] | Mean EC50 [1] [nM] |
| --- | --- | --- | --- |
| B1 | 0.00018 | 108 | 0.113 |
| B2 | 1.7e-05 | 100 | 0.151 |
| B3 | 8.3e-05 | 110 | 0.15 |
| B4 | 1.3e-05 | 110 | 0.133 |
| B5 | 4e-05 | 98 | 0.114 |
| B6 | 9.9e-05 | 90 | 0.104 |
| B7 | 8.4e-05 | 97 | 0.126 |
| B8 | 0.00015 | 103 | 0.153 |
| B9 | 0.00011 | 108 | 0.133 |
| B10 | 3.6e-05 | 109 | 0.146 |
| B11 | 0.00028 | 92 | 0.126 |
| B12 | 2e-05 | 106 | 0.151 |
| B13 | 3.8e-05 | 106 | 0.141 |
| B14 | 4e-06 | 111 | 0.122 |
| B15 | 4.1e-05 | 109 | 0.11 |
| B16 | 2.4e-05 | 97 | 0.095 |
| B17 | 9.9e-05 | 107 | 0.134 |

| Binder | koff (human beta-Klotho (KLB)) [s⁻¹] | Mean E max (%) [1] [%] | Mean EC50 [1] [nM] |
| --- | --- | --- | --- |
| B18 | 0.00029 | 105 | 0.113 |
| B19 | 0.00017 | 98 | 0.091 |
| B20 | 3.5e-05 | 104 | 0.128 |
| B21 | 1.3e-05 | 100 | 0.109 |
| B22 | 8.7e-05 | 109 | 0.134 |
| B23 | 3.2e-05 | 99 | 0.109 |
| B24 | 0.00044 | 107 | 0.147 |
| B25 | 0.00024 | 100 | 0.131 |
| B26 | 4.9e-05 | 100 | 0.143 |
| B27 | 1.7e-05 | 111 | 0.141 |
| B28 | 4.4e-05 | 100 | 0.131 |
| B29 | 0.00017 | 110 | 0.129 |
| B30 | 0.0002 | 89 | 0.132 |
| B31 | 0.00018 | 95 | 0.099 |
| B32 | 0.0001 | 104 | 0.129 |
| B33 | 6.3e-05 | 91 | 0.244 |
